Laboratory results reported in PMC8537613.

Target: NiV F clamp (Nipah virus (Malaysia strain)) (UniProt Q9IH63)
Assay: SEC

Substance: NiV F clamp (from UniProt Q9IH63 27-483)
- stoichiometry N: 3
